Experimental data from patent publication US20100297703A1.

Columns and labels:
Test in all cases: cell-based or functional assay
[1] = target: His-tag-fused C-terminal active domain of CwlE (His-CwlECTD) (Bacillus subtilis) (UniProt O07532)
[2] = target: h-ACwlS protein (Bacillus subtilis) (UniProt O31852)
[3] = target: 6His-C-YddH protein (Bacillus subtilis) (UniProt P96645)
[4] = target: 6His-C-CwlO protein (Bacillus subtilis) (UniProt P40767)
Sequence of 6His-C-CwlO protein (Bacillus subtilis) (P40767 343-473): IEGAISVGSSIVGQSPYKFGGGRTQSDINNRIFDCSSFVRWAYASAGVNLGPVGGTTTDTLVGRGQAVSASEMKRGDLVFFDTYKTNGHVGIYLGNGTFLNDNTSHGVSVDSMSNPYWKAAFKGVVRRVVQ

Sequence of His-tag-fused C-terminal active domain of CwlE (His-CwlECTD) (Bacillus subtilis) (O07532 371-488 limits assumed): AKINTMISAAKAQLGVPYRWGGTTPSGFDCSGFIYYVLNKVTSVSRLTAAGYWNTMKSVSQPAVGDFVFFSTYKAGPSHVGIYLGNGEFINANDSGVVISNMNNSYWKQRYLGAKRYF
Sequence of 6His-C-YddH protein (Bacillus subtilis) (P96645 206-329): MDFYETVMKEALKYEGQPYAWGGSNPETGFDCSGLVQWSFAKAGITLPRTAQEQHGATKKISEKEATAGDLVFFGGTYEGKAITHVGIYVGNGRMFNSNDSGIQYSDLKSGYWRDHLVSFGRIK

His-YoeB (from UniProt O34841 24-181)
100: cell wall lysing activity (decrease in turbidity, OD540), His-CwlECTD:His-YoeB 1:2 by mole (% of activity inhibited) [1] | cell wall lysing activity (decrease in turbidity, OD540), enzyme:His-YoeB 1:2 by mole (% of activity inhibited) [2] | cell wall lysing activity (decrease in turbidity, OD540), enzyme:His-YoeB 1:2 by mole (% of activity inhibited) [3] | cell wall lysing activity (decrease in turbidity, OD540), enzyme:His-YoeB 1:2 by mole (% of activity inhibited) [4]
